According to paper PMC9482650, “Quantitative fragmentomics allow affinity mapping of interactomes” (Nature Communications, 2022):
Values belong to the binder of their own block, whether it stands above or below them.

Key:
Experiment in all cases: holdup assay
Parameters in all cases: key: below the threshold = too weak to quantify, mostly under pKd 3.1 to 4
APBA1_2, Q02410 = target: T1, APBA1_2, Q02410
T1 sequence (Q02410 742-832, limits assumed, looked up): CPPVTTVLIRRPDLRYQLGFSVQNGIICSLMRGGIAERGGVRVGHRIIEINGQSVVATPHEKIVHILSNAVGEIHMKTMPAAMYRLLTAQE

CARD11, Q9BXL7 = target: T2, CARD11, Q9BXL7
T2 sequence (Q9BXL7 662-765, limits assumed, looked up): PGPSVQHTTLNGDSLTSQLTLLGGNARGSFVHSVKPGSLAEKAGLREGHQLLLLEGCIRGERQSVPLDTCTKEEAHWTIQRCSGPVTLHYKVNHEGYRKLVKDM

DLG2_2, Q15700 = target: DLG2_2, Q15700
DLG2_2, Q15700, sequence (Q15700 189-283): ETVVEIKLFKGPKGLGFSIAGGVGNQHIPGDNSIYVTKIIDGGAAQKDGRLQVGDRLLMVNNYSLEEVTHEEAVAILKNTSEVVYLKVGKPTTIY

DLG3_3, Q92796 = target: T3, DLG3_3, Q92796
T3 sequence (Q92796 374-475, limits assumed, looked up): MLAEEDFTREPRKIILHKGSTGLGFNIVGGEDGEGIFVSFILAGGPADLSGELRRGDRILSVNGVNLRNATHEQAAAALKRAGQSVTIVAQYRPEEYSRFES

DVL3, Q92997 = target: T4, DVL3, Q92997
T4 sequence (Q92997 244-331, limits assumed, looked up): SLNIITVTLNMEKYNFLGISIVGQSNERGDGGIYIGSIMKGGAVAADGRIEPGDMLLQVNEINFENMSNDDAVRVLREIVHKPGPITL

FRMPD1, Q5SYB0 = target: T5, FRMPD1, Q5SYB0
T5 sequence (Q5SYB0 52-145, limits assumed, looked up): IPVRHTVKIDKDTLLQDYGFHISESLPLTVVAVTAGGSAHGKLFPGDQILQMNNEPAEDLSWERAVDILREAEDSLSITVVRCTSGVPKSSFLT

FRMPD4, Q14CM0 = target: FRMPD4, Q14CM0
FRMPD4, Q14CM0, sequence (Q14CM0 67-160): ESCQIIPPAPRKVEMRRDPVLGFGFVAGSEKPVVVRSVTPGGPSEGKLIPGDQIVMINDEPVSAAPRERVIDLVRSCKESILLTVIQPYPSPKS

GRASP, Q7Z6J2 = target: GRASP, Q7Z6J2
GRASP, Q7Z6J2, sequence (Q7Z6J2 96-193): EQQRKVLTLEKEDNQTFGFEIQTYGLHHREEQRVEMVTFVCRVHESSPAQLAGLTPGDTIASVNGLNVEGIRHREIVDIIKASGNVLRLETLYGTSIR

HTRA2, O43464 = target: HTRA2, O43464
HTRA2, O43464, sequence (O43464 355-458): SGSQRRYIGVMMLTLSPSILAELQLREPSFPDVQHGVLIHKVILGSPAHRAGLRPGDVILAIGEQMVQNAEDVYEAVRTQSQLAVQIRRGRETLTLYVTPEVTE

HTRA4, P83105 = target: T6, HTRA4, P83105
T6 sequence (P83105 378-476, limits assumed, looked up): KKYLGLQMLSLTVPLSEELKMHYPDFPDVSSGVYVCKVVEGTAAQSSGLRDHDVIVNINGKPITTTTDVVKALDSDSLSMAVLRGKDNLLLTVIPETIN

IL16_4, Q14005 = target: IL16_4, Q14005
IL16_4, Q14005, sequence (Q14005 1229-1329): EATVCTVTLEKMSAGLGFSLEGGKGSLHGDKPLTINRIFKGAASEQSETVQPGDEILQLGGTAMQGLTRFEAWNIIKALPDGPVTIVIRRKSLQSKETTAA

Inadl_10, Q8NI35 = target: Inadl_10, Q8NI35
Inadl_10, Q8NI35, sequence (Q8NI35 1673-1763): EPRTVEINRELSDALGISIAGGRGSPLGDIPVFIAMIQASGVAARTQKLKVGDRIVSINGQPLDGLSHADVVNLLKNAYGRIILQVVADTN

Inadl_8, Q8NI35 = target: Inadl_8, Q8NI35
Inadl_8, Q8NI35, sequence (Q8NI35 1425-1530): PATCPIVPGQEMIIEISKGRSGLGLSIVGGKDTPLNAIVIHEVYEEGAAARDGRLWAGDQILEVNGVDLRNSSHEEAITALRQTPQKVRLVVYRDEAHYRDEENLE

Inadl_9, Q8NI35 = target: Inadl_9, Q8NI35
Inadl_9, Q8NI35, sequence (Q8NI35 1530-1615): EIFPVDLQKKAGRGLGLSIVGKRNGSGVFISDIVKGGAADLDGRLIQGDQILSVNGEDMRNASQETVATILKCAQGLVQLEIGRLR

LAP2, Q96RT1 = target: LAP2, Q96RT1
LAP2, Q96RT1, sequence (Q96RT1 other isoform, or with tags, fused parts or gaps): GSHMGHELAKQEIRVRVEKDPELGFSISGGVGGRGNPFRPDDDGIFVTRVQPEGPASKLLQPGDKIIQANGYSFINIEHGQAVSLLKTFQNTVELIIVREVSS

MAGI2_2, Q86UL8 = target: MAGI2_2, Q86UL8
MAGI2_2, Q86UL8, sequence (Q86UL8 410-522): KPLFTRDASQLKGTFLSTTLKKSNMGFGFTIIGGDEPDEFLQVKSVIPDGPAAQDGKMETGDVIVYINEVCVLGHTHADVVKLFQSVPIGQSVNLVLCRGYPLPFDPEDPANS

MAGI2_3, Q86UL8 = target: MAGI2_3, Q86UL8
MAGI2_3, Q86UL8, sequence (Q86UL8 600-682): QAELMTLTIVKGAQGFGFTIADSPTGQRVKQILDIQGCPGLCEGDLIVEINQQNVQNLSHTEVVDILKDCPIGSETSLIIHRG

MPP6, Q9NZW5 = target: T7, MPP6, Q9NZW5
T7 sequence (Q9NZW5 125-219, limits assumed, looked up): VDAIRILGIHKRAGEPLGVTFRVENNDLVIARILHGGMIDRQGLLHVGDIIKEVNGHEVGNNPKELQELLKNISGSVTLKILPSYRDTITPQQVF

NHERF2_2, Q15599 = target: NHERF2_2, Q15599
NHERF2_2, Q15599, sequence (Q15599 142-238): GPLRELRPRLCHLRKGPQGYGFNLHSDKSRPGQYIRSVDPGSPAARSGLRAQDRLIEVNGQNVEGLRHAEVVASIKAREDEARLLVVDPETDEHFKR

NHERF3_3, Q5T2W1 = target: T8, NHERF3_3, Q5T2W1
T8 sequence (Q5T2W1 238-333, limits assumed, looked up): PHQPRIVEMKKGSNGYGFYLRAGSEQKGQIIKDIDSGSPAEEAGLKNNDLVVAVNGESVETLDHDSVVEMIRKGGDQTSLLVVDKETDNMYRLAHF

NHERF3_4, Q5T2W1 = target: T9, NHERF3_4, Q5T2W1
T9 sequence (Q5T2W1 373-468, limits assumed, looked up): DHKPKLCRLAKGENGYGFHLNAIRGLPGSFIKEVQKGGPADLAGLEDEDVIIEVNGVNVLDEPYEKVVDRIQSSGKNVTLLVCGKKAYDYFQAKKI

NHERF4_2, Q86UT5 = target: NHERF4_2, Q86UT5
NHERF4_2, Q86UT5, sequence (Q86UT5 220-308): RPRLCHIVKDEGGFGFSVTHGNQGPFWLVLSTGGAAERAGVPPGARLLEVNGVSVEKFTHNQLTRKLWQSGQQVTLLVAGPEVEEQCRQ

PDZD2_2, O15018 = target: T10, PDZD2_2, O15018
T10 sequence (O15018 329-429, limits assumed, looked up): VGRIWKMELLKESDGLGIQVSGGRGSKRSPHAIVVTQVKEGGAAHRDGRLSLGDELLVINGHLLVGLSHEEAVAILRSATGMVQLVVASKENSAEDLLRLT

PDZD7_3, Q9H5P4 = target: T11, PDZD7_3, Q9H5P4
T11 sequence (Q9H5P4 857-944, limits assumed, looked up): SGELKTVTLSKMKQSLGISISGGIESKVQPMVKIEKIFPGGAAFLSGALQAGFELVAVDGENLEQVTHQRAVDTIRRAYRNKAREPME

PDZRN4_1, Q6ZMN7 = target: PDZRN4_1, Q6ZMN7
PDZRN4_1, Q6ZMN7, sequence (Q6ZMN7 213-318): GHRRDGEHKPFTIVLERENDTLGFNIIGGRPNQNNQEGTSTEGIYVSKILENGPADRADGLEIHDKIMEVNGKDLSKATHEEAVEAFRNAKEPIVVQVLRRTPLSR

RHPN1, Q8TCX5 = target: T12, RHPN1, Q8TCX5
T12 sequence (Q8TCX5 508-602, limits assumed, looked up): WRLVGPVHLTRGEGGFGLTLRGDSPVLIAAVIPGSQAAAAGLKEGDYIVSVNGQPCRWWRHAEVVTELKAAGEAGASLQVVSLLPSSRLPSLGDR

[1] = plain residues with an end cap or a label only (N-terminal biotin on a linker: ahx)
[2] = plain residues with an end cap or a label only (N-terminal biotin on a linker: ttds)
[3] = plain residues with an end cap or a label only (N-terminal biotin on a linker: ado-ado)

B2: NET1, Q7Z628 (peptide)
chain: SGGKRKETLV
- pKd (APBA1_2, Q02410; [2]): 3.53
- pKd (CARD11, Q9BXL7; [2]): below the threshold
- pKd (DLG2_2, Q15700; [2]): 5.26
- pKd (DLG3_3, Q92796; [2]): 5.05
- pKd (DVL3, Q92997; [2]): below the threshold
- pKd (FRMPD1, Q5SYB0; [2]): below the threshold
- pKd (FRMPD4, Q14CM0; [2]): 3.65
- pKd (GRASP, Q7Z6J2; [2]): below the threshold
- pKd (HTRA2, O43464; [2]): below the threshold
- pKd (HTRA4, P83105; [2]): below the threshold
- pKd (IL16_4, Q14005; [2]): below the threshold
- pKd (Inadl_10, Q8NI35; [2]): below the threshold
- pKd (Inadl_8, Q8NI35; [2]): 3.63
- pKd (Inadl_9, Q8NI35; [2]): 3.66
- pKd (LAP2, Q96RT1; [2]): below the threshold
- pKd (MAGI2_2, Q86UL8; [2]): 5.87
- pKd (MAGI2_3, Q86UL8; [2]): 4.5
- pKd (MPP6, Q9NZW5; [2]): below the threshold
- pKd (NHERF2_2, Q15599; [2]): below the threshold
- pKd (NHERF3_3, Q5T2W1; [2]): below the threshold
- pKd (NHERF3_4, Q5T2W1; [2]): below the threshold
- pKd (NHERF4_2, Q86UT5; [2]): below the threshold
- pKd (PDZD2_2, O15018; [2]): 4.25
- pKd (PDZD7_3, Q9H5P4; [2]): 4.54
- pKd (PDZRN4_1, Q6ZMN7; [2]): 4.31
- pKd (RHPN1, Q8TCX5; [2]): 3.65

B4: DCHS2, Q6V1P9 (peptide)
chain: ELKAEDEVQI
- pKd (APBA1_2, Q02410; [3]): below the threshold
- pKd (CARD11, Q9BXL7; [3]): below the threshold
- pKd (DLG2_2, Q15700; [3]): below the threshold
- pKd (DLG3_3, Q92796; [3]): below the threshold
- pKd (DVL3, Q92997; [3]): below the threshold
- pKd (FRMPD1, Q5SYB0; [3]): below the threshold
- pKd (FRMPD4, Q14CM0; [3]): below the threshold
- pKd (GRASP, Q7Z6J2; [3]): below the threshold
- pKd (HTRA2, O43464; [3]): below the threshold
- pKd (HTRA4, P83105; [3]): below the threshold
- pKd (IL16_4, Q14005; [3]): 3.6
- pKd (Inadl_10, Q8NI35; [3]): below the threshold
- pKd (Inadl_8, Q8NI35; [3]): below the threshold
- pKd (Inadl_9, Q8NI35; [3]): below the threshold
- pKd (LAP2, Q96RT1; [3]): below the threshold
- pKd (MAGI2_2, Q86UL8; [3]): below the threshold
- pKd (MAGI2_3, Q86UL8; [3]): below the threshold
- pKd (MPP6, Q9NZW5; [3]): below the threshold
- pKd (NHERF2_2, Q15599; [3]): below the threshold
- pKd (NHERF3_3, Q5T2W1; [3]): below the threshold
- pKd (NHERF3_4, Q5T2W1; [3]): below the threshold
- pKd (NHERF4_2, Q86UT5; [3]): below the threshold
- pKd (PDZD2_2, O15018; [3]): below the threshold
- pKd (PDZD7_3, Q9H5P4; [3]): below the threshold
- pKd (PDZRN4_1, Q6ZMN7; [3]): below the threshold
- pKd (RHPN1, Q8TCX5; [3]): below the threshold

Continued, values first:

- pKd (APBA1_2, Q02410; [1]): 3.94
- pKd (CARD11, Q9BXL7; [1]): below the threshold
- pKd (DLG2_2, Q15700; [1]): 3.57
- pKd (DLG3_3, Q92796; [1]): below the threshold
- pKd (DVL3, Q92997; [1]): below the threshold
- pKd (FRMPD1, Q5SYB0; [1]): below the threshold
- pKd (FRMPD4, Q14CM0; [1]): below the threshold
- pKd (GRASP, Q7Z6J2; [1]): 4.66
- pKd (HTRA2, O43464; [1]): below the threshold
- pKd (HTRA4, P83105; [1]): below the threshold
- pKd (IL16_4, Q14005; [1]): below the threshold
- pKd (Inadl_10, Q8NI35; [1]): below the threshold
- pKd (Inadl_8, Q8NI35; [1]): 3.86
- pKd (Inadl_9, Q8NI35; [1]): below the threshold
- pKd (LAP2, Q96RT1; [1]): below the threshold
- pKd (MAGI2_2, Q86UL8; [1]): below the threshold
- pKd (MAGI2_3, Q86UL8; [1]): 4.15
- pKd (MPP6, Q9NZW5; [1]): below the threshold
- pKd (NHERF2_2, Q15599; [1]): below the threshold
- pKd (NHERF3_3, Q5T2W1; [1]): below the threshold
- pKd (NHERF3_4, Q5T2W1; [1]): below the threshold
- pKd (NHERF4_2, Q86UT5; [1]): below the threshold
- pKd (PDZD2_2, O15018; [1]): 5.5
- pKd (PDZD7_3, Q9H5P4; [1]): 3.83
- pKd (PDZRN4_1, Q6ZMN7; [1]): below the threshold
- pKd (RHPN1, Q8TCX5; [1]): 4.42
B1: RAPGEF6, Q8TEU7 (peptide)
chain: ADENEQVSAV

- pKd (APBA1_2, Q02410; [1]): below the threshold
- pKd (CARD11, Q9BXL7; [1]): below the threshold
- pKd (DLG2_2, Q15700; [1]): below the threshold
- pKd (DLG3_3, Q92796; [1]): below the threshold
- pKd (DVL3, Q92997; [1]): below the threshold
- pKd (FRMPD1, Q5SYB0; [1]): below the threshold
- pKd (FRMPD4, Q14CM0; [1]): below the threshold
- pKd (GRASP, Q7Z6J2; [1]): below the threshold
- pKd (HTRA2, O43464; [1]): below the threshold
- pKd (HTRA4, P83105; [1]): below the threshold
- pKd (IL16_4, Q14005; [1]): below the threshold
- pKd (Inadl_10, Q8NI35; [1]): below the threshold
- pKd (Inadl_8, Q8NI35; [1]): below the threshold
- pKd (Inadl_9, Q8NI35; [1]): below the threshold
- pKd (LAP2, Q96RT1; [1]): below the threshold
- pKd (MAGI2_2, Q86UL8; [1]): below the threshold
- pKd (MAGI2_3, Q86UL8; [1]): below the threshold
- pKd (MPP6, Q9NZW5; [1]): below the threshold
- pKd (NHERF2_2, Q15599; [1]): below the threshold
- pKd (NHERF3_3, Q5T2W1; [1]): below the threshold
- pKd (NHERF3_4, Q5T2W1; [1]): below the threshold
- pKd (NHERF4_2, Q86UT5; [1]): below the threshold
- pKd (PDZD2_2, O15018; [1]): below the threshold
- pKd (PDZD7_3, Q9H5P4; [1]): below the threshold
- pKd (PDZRN4_1, Q6ZMN7; [1]): below the threshold
- pKd (RHPN1, Q8TCX5; [1]): below the threshold
B3: PDLIM2, Q96JY6 (peptide)
chain: SAPATLSSRA
